Columns and labels:
[1] = biological target: T1, recombinant methionine adenosyltransferase α1 (MATα1) (rat, UniProt P13444 1-397); assay: SEC; equimolar purified recombinant MATα1 or MATα2 and GST-PDRG1 incubated 1 hour at 4°C, then Biogel A column (1.5 x 90 cm) in 50 mM Tris/HCl pH 8, 10 mM MgSO4, 50 mM KCl at 4°C; both proteins detected in the pooled activity peaks by Coomassie staining and/or western blotting; conditions: both partners purified
T1 construct: rat MATα1, pSSRL-T7N containing the rat Mat1a ORF; also called pSSRL-T7N; MATα1 homo-oligomers; source: E. coli BL21(DE3) Codon Plus; soluble extract (pull-down)

[2] = biological target: the molecule itself; assay: SEC; analytical gel filtration of nuclear fractions (100 μl) of HEK 293T cells overexpressing HA-PDRG1, FLAG-MATα1 or both on Superose 12 10/300 GL; fractions analysed by dot-blot

Chain of FLAG-MATα1 (P13444 whole entry): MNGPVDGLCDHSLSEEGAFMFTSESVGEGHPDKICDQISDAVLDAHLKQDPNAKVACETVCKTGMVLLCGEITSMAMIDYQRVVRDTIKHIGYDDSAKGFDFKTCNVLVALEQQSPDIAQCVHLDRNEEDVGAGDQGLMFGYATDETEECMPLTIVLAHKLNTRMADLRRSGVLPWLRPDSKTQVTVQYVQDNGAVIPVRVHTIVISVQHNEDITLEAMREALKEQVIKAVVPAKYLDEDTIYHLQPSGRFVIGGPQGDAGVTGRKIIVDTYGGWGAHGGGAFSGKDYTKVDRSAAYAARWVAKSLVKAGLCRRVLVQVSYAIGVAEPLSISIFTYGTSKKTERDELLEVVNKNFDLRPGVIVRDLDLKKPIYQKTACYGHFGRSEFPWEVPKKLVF
T1 sequence (P13444 whole entry): as above

Row | Binder | binding result [1] | stoichiometry N [2]
1 | GST-PDRG1 (natural protein, 9 amino acid linker between GST and PDRG1; rat PDRG1, full ORF (402 bp) in pGEX-5X-1; also called pGEX-PDRG1; tagged-PDRG1; source: E. coli BL21(DE3) Codon Plus; soluble extract loaded on Glutathione-Sepharose (pull-down); purified on Glutathione-Sepharose 4B, eluted with 20 mM GSH (gel filtration, activity); not shown: GST, N-terminal, kept) not shown | binds | 
2 | FLAG-MATα1 (enzyme, rat MATα1, pFLAG-MAT containing the rat Mat1a ORF; also called pFLAG-MAT; source: CHO, HEK 293T or COS-7 cells, transiently transfected; in total lysate, nuclear or cytosolic fractions) not shown |  | 4
3 | HA-PDRG1 (natural protein, residues between the HA tag and PDRG1; rat PDRG1, full ORF (402 bp); also called pHA-PDRG1; HA-tagged PDRG1; source: CHO, HEK 293T or COS-7 cells, transiently transfected; in total lysate, nuclear or cytosolic fractions; not shown: HA, N-terminal, kept) not shown |  | 6

— PMC4993455 (PLoS ONE, 2016)
